Consider 2 molecules from US20170305994A1 (Novo Nordisk, published 2017).

Test [1] has as its target T1, cynomolgus DR3 (on HEK293 reporter cells) (cynomolgus, UniProt A0A2K5WJ09 98-464).
T1 sequence: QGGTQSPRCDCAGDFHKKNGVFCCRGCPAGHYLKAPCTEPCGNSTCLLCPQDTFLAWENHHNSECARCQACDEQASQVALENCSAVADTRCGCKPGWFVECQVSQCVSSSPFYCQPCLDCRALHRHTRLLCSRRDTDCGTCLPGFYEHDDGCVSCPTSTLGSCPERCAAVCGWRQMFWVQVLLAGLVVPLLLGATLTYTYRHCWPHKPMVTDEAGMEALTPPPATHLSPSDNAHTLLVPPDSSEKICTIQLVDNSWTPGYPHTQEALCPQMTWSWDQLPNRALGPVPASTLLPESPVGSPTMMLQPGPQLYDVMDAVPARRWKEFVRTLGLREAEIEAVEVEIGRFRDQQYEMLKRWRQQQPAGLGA
The experiment in a line: cell-based or functional assay.

Test [2] addresses T2, human DR3 (full length, on cells) (human, UniProt Q93038 25-417).
T2 sequence: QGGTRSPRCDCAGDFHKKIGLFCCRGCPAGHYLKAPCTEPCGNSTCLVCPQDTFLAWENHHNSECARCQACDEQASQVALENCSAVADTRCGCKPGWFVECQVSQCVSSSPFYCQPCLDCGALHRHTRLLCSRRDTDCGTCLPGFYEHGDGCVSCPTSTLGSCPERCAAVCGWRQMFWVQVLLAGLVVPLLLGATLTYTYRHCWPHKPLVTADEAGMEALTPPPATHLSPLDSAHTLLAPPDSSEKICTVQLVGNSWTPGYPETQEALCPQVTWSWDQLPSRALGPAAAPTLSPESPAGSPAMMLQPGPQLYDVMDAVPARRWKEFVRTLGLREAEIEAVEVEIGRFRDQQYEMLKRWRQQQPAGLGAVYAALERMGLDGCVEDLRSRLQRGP
The experiment in a line: cell-based or functional assay.

The target of test [3] is T3, human DR3 with the death domain deleted (ΔM339-P417 of SEQ ID NO:1), expressed on CHOK1SV cells (human, UniProt Q93038 25-338).
T3 construct: also called truncated DR3; hDR3 expressing CHO cells
T3 sequence: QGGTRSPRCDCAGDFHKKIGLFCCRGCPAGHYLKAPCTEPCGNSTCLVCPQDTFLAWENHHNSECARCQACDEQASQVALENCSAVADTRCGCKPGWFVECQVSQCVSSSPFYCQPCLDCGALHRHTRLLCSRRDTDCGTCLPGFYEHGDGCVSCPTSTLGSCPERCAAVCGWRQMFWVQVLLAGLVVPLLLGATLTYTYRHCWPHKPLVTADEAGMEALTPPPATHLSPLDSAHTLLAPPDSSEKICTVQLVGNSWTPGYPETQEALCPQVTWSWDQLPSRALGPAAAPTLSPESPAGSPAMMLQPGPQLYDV
In words: flow cytometry competition: Fab vs TL1A on hDR3-expressing CHO cells. In general terms: In flow cytometry, cells or beads pass a laser one at a time.

For a further test, the target named is T4, DR3 (CRD1)-Fc (human).
T4 construct: Amino acids 25-71 of DR3 fused to the Fc domain of human IgG4; purified to exclude oligomers (mainly dimeric)
The experiment in a line: SPR. An excerpt:
The extracellular moiety of DR3 is located at the aminoterminal portion of DR3 and is comprised of four TNF receptor cysteine-rich domains. Several fusion proteins were expressed and purified which contained parts of the extracellular domain of DR3 of increasing length fused to the Fc domain of a human IgG4. The DR3 proteins used for SPR analysis had been purified to exclude oligomerized material. These proteins were immobilized to a CM5 sensor chip using amine coupling chemistry. Binding of anti-DR3 antibodies termed 0070, 0072, 0073 and 0076, to the different DR3-Fc fusion proteins was tested by means of plasmon surface binding measurements on a Biacore T100 instrument (GE Healthcare). All of these antibodies inhibit binding of TL1A to DR3 in a FACS assay. These 4 antibodies bound to recombinant DR3 (CRD1)-Fc protein that contained only the aminoterminal CRD (SEQ ID NO:2) comprised of amino acids 25-71 of DR3.
The same analysis was also performed for some of the Fab fragments.
On the technique in general: SPR reads the build-up and loss of mass on a sensor chip optically.

Test [4] concerns the target T2, human DR3 (full length, on cells). In words: cell-based or functional assay. This is another data set of the same source.
Test [5] addresses T5, marmoset DR3 (transiently expressed on HEK293 cells) (marmoset, UniProt U3ENN5 27-418).
T5 sequence: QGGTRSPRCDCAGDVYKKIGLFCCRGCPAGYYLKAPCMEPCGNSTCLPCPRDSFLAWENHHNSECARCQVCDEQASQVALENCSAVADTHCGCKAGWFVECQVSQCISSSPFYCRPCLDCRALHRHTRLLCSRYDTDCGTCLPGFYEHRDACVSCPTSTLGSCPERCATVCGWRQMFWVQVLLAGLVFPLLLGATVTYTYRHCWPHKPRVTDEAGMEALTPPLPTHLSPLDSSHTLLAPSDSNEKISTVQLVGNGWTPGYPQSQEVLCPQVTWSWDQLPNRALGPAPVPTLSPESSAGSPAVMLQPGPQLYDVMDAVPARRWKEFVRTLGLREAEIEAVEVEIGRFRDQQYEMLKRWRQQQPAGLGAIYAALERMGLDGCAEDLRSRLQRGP
In words: cell-based or functional assay.

The target in test [6] is T1, cynomolgus DR3 (on HEK293 reporter …). The experiment in a line: cell-based or functional assay. The source holds these as a separate data set.
Test [7] concerns the target T2, human DR3 (full length, on cells). In words: cell-based or functional assay. The source holds these as a separate data set.
Another test deals with T6, DR3 (ECD)-Fc (human).
T6 construct: ECD of DR3, a linker with a TEV cleavage site and the Fc part of human IgG4; dimeric fraction used; also called DR3-Fc; hDR3-Fc
In words: HX-MS with hDR3 ECD-Fc. How it is done:
The Leap robot was equipped with two temperature controlled stacks maintained at 20° C. for buffer storage and HX reactions and maintained at 2° C. for storage of protein and quench solution, respectively. The Waters HDX system furthermore contained a temperature controlled chamber holding the pre- and analytical columns, and the LC tubing and switching valves at 1° C. A separately temperature controlled chamber holds the pepsin column at 25° C. […] The resulting peptides were trapped and desalted on a VanGuard pre-column BEH C18 1.7 μm (2.1×5 mm (Waters Inc.)). Subsequently, the valves were switched to place the pre-column inline with the analytical column, UPLC-BEH C18 1.7 μm (1×100 mm (Waters Inc.)), and the peptides separated using a 9 min gradient of 10-40% B delivered at 200 μl/min from the nanoAQUITY UPLC system (Waters Inc.). The mobile phases consisted of A: 0.1% formic acid and B: 0.1% formic acid in CH₃CN. The ESI MS data, and the separate elevated energy (MS^E) experiments were acquired in positive ion mode using a Synapt G2 mass spectrometer (Waters Inc.).
All HX reactions were carried out at 20° C. and contained […] hDR3 in the absence or presence of […] Fab thus giving a 5 fold molar excess of Fab. […]

In test [8] the target is T3, human DR3 with the death domain deleted …. In words: FACS on DR3 expressing cells; competitor Mab 0107.
Test [9] shares this target. The experiment in a line: FACS on DR3 expressing cells; competitor Mab 0121.

B1: 0123 (chimeric Fab of 27F44, human IgG4 constant domain, hinge Cys->Ser) (Fab, V domains shown)
VH: EVKLVESGGGLVKPGGSLKLSCSASGFAFSNYDMSWVRQTPEKRLEWVAAFSSDGYTFYPDSLKGRFTISRDNARNTLYLQMSSLGSEDTALYCCARHADYANYPVMDYWGQGTSVTVSS
VL: DIVLAQSPASLLVSLGQRATISCRASKSVSTSGYSYMHWYQQKPGQPPKLLIYLASNLESGVPARFSGSGSGTDFTLNIHPVEEEDAATYYCQHSRELPLTFGAGTMLELKR
notes: murine variable domains, human IgG4 constant domain (IgG4-Ser)
For orientation: IC50 means the point on the concentration scale where inhibition reaches its midpoint. Low values mean greater potency in that assay, high ones weaker potency in that assay. As to B1, inhibition in test [1] was half-maximal at 236 nM (IC50 at 40 ng/ml TL1A, Lyda20 reporter cells). Moreover, in test [2], the “IC50, TNFalpha inhibition, TL1A-activated CD4+ T cells, donor 1” value came to 0.301 nM; the “IC50, TNFalpha inhibition, TL1A-activated CD4+ T cells, donor 2” value was 0.32 nM; the “IC50, TNFalpha inhibition, average (n 22)” value is 0.208 nM; the “max % inhibition of TNFalpha, donor 1” value was determined as 83.5%. Further, the “max % inhibition of TNFalpha, donor 2” value in test [2] worked out at 75.9%. Also, in test [3], the half-maximal inhibitory concentration (IC50) was 0.443 nM and the max percentage inhibition was determined as 80%. The binding result in the test with DR3 (CRD1)-Fc is “binds”. Also, the half-maximal inhibitory concentration (IC50) at 40 ng/ml TL1A, transient reporter HEK293 in [4] is 0.33 nM. In test [5], it took 0.323 nM to reach half-maximal inhibition (IC50 at 40 ng/ml TL1A, transient reporter HEK293). The concentration for half-maximal inhibition (IC50) at 40 ng/ml TL1A, transient reporter HEK293 in test [6] stood at 99 nM. The concentration for half-maximal inhibition (IC50) at 40 ng/ml TL1A, I5 reporter cells in test [7] turned out to be 0.188 nM.

B2: 0148 (chimeric Fab of 5F13, human IgG4 constant domain, hinge Cys->Ser) (Fab, V domains shown)
VH: EVQLVESGGGLVKPGGSLKFSCAVSGFTFSSYVMSWVRQTPEKRLEWVAAISSDSTYTYYLDSVKGRFTISRDNAKNTLYLQMSSLRSEDTAMYYCARQTRSDAMDYWGQGTSVTVSS
VL: DIVLTQSPASLAVSLGQRATISCRASESVDNYGNSFMHWYQQKPGQPPKLLIYRASNLESGIPARFSGSGSRTDFTLTINPVEADDVAIYYCQQSNEDPLTFGAGTKLELKR
notes: IgG4-Ser, chimeric
Consider B2, for which, in the test with DR3 (ECD)-Fc, the binding result was “binds”. In test [2], the “max % inhibition of TNFalpha, donor 1” value was determined as 9.5% and the “max % inhibition of TNFalpha, donor 2” value is -8.5%. Besides, the “molar ratio Mab/Fab from which the Fab inhibits” value in test [8] is 100 Fab per Mab (molar ratio Mab/Fab 1:n). In addition, in test [3], the IC50 was determined as 9.22 nM and the max percentage inhibition was 33%. For the same molecule, the “molar ratio Mab/Fab from which the Fab inhibits fully” value in [9] was 3 Fab per Mab (molar ratio Mab/Fab 1:n).
